Experiment [1] addresses epidermal growth factor receptor (EGFR) of COS1 cells, tyrosine-phosphorylated (monkey (COS1 cells)). The experiment in a line: co-immunoprecipitation from EGF-treated COS1 lysates with anti-HA agarose, anti-pTyr blot.
Experiment [2] shares this target. The experiment in a line: cell-based or functional assay.

In experiment [1], “HA-tagged full-length human PTP1B D181A/Q262A (from UniProt P18031 1-435) (enzyme)” registered a fold greater quantity of tyrosine-phosphorylated EGF receptor co-precipitated than with the D181A mutant of over 3 fold. The protection of the phosphorylated EGF receptors in COS1 cells, against the D181A mutant (anti-pTyr immunoblot of lysates) in experiment [2] came to 3 fold.

(Values after patent US8071348B2, “Protein tyrosine phosphatase substrate-trapping double mutant and uses thereof” (Albert Einstein College of Medicine of Yeshiva University, priority 2002, dated 2011).)
